Assay results: patent US20240368233A1 (University of Washington, published 2024)

What was measured:
[1] = molecular target: T1, 101B4, split luciferase reporter construct; test: split luciferase equilibrium binding in lysate
T1 construct: not shown: N-terminal Strep-tag and sfGFP; GS-linker and smBiT or lgBiT
T1 chain: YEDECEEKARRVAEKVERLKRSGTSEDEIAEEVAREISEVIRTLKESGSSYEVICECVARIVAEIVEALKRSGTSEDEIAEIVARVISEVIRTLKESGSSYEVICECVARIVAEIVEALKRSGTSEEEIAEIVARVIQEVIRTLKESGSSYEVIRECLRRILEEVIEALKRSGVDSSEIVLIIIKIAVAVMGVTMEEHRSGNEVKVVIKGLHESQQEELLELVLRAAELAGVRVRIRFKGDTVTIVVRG

[2] = molecular target: T1, 101B4, split luciferase reporter …; test: split luciferase association kinetics, 1 nM vs. 10 nM, in lysate
Protocol: (§1) Assays were performed in 20 mM sodium phosphate, 100 mM NaCl, pH 7.4, 0.05% v/v Tween 20. Reactions were assembled in 96 well plates (Corning, cat #3686) in the presence of Nano-Glo™ substrate (Promega, cat. #N1130) diluted 100× or 500× for kinetics and endpoint measurements respectively (see supplement for detailed information). Luminescence was recorded on a Synergy Neo2 plate reader (BioTek). Kinetic assays were performed under pseudo first-order conditions, with the final concentration of one protein at 1 nM and the other at 10 nM. Dead times between substrate addition and data acquisition were typically 15-30 s. For long kinetic measurements (FIG. 11A), mastermixes of the protein complexes were made and aliquots were sampled at regular intervals. Data were fitted to a single exponential decay function: […]

[3] = molecular target: T2, LHD101 chainB, split luciferase reporter construct; test: split luciferase equilibrium binding in lysate
T2 construct: not shown: N-terminal Strep-tag and sfGFP; GS-linker and smBiT or lgBiT
T2 chain: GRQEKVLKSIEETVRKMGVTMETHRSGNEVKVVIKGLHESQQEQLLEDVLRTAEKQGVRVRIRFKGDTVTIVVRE

[4] = molecular target: T2, LHD101 chainB, split luciferase …; test: split luciferase association kinetics, 1 nM vs. 10 nM, in lysate
Protocol: as §1

[5] = molecular target: T2, LHD101 chainB, split luciferase …; test: split luciferase; affinity of the interface as measured in isolation, used to simulate the ternary complex ABC
[6] = molecular target: T2, LHD101 chainB, split luciferase …; test: split luciferase equilibrium titration in E. coli lysate, constant partner at 1 nM; first-named construct read as the titrated one; no unit beside the number, M from the axis '[Titrated] / M'
LHD101 chainB [7] = molecular target: T3, LHD101 chainB; test: BLI
T3 construct: also called LHD101B
T3 chain: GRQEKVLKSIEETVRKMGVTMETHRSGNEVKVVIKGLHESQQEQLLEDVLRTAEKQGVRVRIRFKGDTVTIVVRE
Source text: FIG. 8A-E. Characterization LHD binding in vitro. A: Designed models heterodimers (top row). Middle row, SEC binding experiments performed on a Superdex™ 75 column. Bottom row, biolayer interferometry kinetic binding traces. […] C: Kinetic binding traces from BLI. Equilibrium responses were used to fit equilibrium binding curves D: Equilibrium binding curves of LHDs from biolayer interferometry binding assays with data from C. […] Biotinylated unfused protomers were immobilized on streptavidin coated biosensors.
Biolayer interferometry experiments were performed on an OctetRED96 BLI system (ForteBio, Menlo Park, CA). Streptavidin coated biosensors were first equilibrated for at least 10 minutes in Octet buffer (10 mM HEPES pH 7.4, 150 mM NaCl, 3 mM EDTA, 0.05% Surfactant P20) supplemented with 1 mg/ml Bovine Serum Albumin (SigmaAldrich). Enzymatically biotinylated designs were immobilized onto the biosensors by dipping the biosensors into a solution with 10-50 nM protein for 30-120 s. This was followed by dipping in fresh octet buffer to establish a baseline for 120 s. Titration experiments were performed at 25° C. while rotating at 1,000 r.p.m. […]

LHD101 chainB [8] = molecular target: T3, LHD101 chainB; test: BLI, steady state fit
Protocol: (§2) Biolayer interferometry experiments were performed on an OctetRED96 BLI system (ForteBio, Menlo Park, CA). Streptavidin coated biosensors were first equilibrated for at least 10 minutes in Octet buffer (10 mM HEPES pH 7.4, 150 mM NaCl, 3 mM EDTA, 0.05% Surfactant P20) supplemented with 1 mg/ml Bovine Serum Albumin (SigmaAldrich). Enzymatically biotinylated designs were immobilized onto the biosensors by dipping the biosensors into a solution with 10-50 nM protein for 30-120 s. This was followed by dipping in fresh octet buffer to establish a baseline for 120 s. Titration experiments were performed at 25° C. while rotating at 1,000 r.p.m. Association of designs was allowed by dipping biosensors in solutions containing designed protein diluted in octet buffer until equilibrium was approached followed by dissociation by dipping the biosensors into fresh buffer solution in order to monitor the dissociation kinetics. Steady-state and global kinetic fits were performed using the manufacturer's software (Data Analysis 9.1) assuming a 1:1 binding model.

[9] = molecular target: the molecule itself; test: SEC titration (self-association)
LHD101 chainB [10] = molecular target: T3, LHD101 chainB; test: BLI, global kinetic fit, 1:1 model
Protocol: as §2

LHD101 chainB [11] = molecular target: T3, LHD101 chainB; test: BLI, dissociation rate constant (kdis)
Protocol: as §2

317B [12] = molecular target: T4, 317B; test: BLI, steady state fit
T4 construct: also called LHD317 B; LHD317B
T4 chain: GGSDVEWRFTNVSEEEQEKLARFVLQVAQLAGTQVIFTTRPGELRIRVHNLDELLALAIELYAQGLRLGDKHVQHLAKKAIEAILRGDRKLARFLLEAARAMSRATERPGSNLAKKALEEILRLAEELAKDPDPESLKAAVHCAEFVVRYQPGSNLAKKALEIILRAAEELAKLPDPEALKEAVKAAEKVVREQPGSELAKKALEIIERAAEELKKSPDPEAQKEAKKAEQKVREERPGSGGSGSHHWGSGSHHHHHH
Protocol: as §2

317B [13] = molecular target: T4, 317B; test: BLI, global kinetic fit, 1:1 model
Protocol: as §2

[14] = molecular target: the molecule itself; test: SEC titration of the protomer alone at several injection concentrations (Superdex 75, normalised A230); self-association
[15] = molecular target: T5, LHD29 chainB, split luciferase reporter construct; test: split luciferase equilibrium binding in lysate
T5 construct: not shown: N-terminal Strep-tag and sfGFP; GS-linker and smBiT or lgBiT
T5 chain: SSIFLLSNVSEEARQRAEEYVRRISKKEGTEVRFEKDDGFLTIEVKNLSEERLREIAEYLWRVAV

[16] = molecular target: T5, LHD29 chainB, split luciferase reporter …; test: split luciferase association kinetics, 1 nM vs. 10 nM, in lysate
Protocol: as §1

[17] = molecular target: T5, LHD29 chainB, split luciferase reporter …; test: split luciferase; affinity of the interface as measured in isolation, used to simulate the ternary complex ABC
[18] = molecular target: T6, LHD274 chainB, split luciferase reporter construct; test: split luciferase association kinetics, 1 nM vs. 10 nM, in lysate
T6 construct: not shown: N-terminal Strep-tag and sfGFP; GS-linker and smBiT or lgBiT
T6 chain: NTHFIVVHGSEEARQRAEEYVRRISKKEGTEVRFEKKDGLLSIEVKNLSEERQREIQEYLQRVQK
Protocol: as §1

[19] = molecular target: T7, 101B82, split luciferase reporter construct; test: split luciferase equilibrium binding in lysate
T7 construct: not shown: N-terminal Strep-tag and sfGFP; GS-linker and smBiT or lgBiT
T7 chain: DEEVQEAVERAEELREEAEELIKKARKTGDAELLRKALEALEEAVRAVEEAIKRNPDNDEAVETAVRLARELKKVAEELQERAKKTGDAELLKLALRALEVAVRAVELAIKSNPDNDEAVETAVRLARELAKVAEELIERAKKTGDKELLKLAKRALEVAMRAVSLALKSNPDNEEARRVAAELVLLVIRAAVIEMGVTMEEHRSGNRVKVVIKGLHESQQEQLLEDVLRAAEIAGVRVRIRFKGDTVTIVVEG

[20] = molecular target: T8, LHD206 chainB, split luciferase reporter construct; test: split luciferase equilibrium binding in lysate
T8 construct: not shown: N-terminal Strep-tag and sfGFP; GS-linker and smBiT or lgBiT
T8 chain: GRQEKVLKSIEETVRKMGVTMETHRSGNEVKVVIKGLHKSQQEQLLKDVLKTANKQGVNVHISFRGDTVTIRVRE

[21] = molecular target: T8, LHD206 chainB, split luciferase …; test: split luciferase association kinetics, 1 nM vs. 10 nM, in lysate
Protocol: as §1

LHD202 chainB [22] = molecular target: T9, LHD202 chainB; test: BLI, steady state fit
T9 construct: also called LHD202B
T9 chain: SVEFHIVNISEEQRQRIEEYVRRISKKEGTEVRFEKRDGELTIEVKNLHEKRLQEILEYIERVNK
Protocol: as §2

LHD202 chainB [23] = molecular target: T9, LHD202 chainB; test: BLI, global kinetic fit, 1:1 model
Protocol: as §2

[24] = molecular target: T10, LHD202 chainB, split luciferase reporter construct; test: split luciferase association kinetics, 1 nM vs. 10 nM, in lysate
T10 construct: not shown: N-terminal Strep-tag and sfGFP; GS-linker and smBiT or lgBiT
T10 chain: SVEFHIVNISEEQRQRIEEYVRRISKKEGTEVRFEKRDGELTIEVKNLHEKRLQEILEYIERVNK
Protocol: as §1

B1: 101A53, split luciferase reporter construct (designed binder)
chain: NDEKEKLKELLKRAEELAKSPDPEDLKEAVRLAEEVVRERPGSNLAKKALEIILRAAEELAKLPDPEALKEAVKAAEKVVREQPGSNLAKKALEIILRAAAALANLPDPESRKEADKAADKVRREQPGSELAVVAAIISAVARMGVKMELHPSGNEVKVVIKGLHIKQQRQLYRDVREAAKKAGVEVEIEVEGDTVTIVVRG
notes: also called LHD101-A53-B4 (A53 half); not shown: N-terminal Strep-tag and sfGFP; GS-linker and smBiT or lgBiT
Which Kd [1] does the source give for B1 here?
Its Kd is 4 nM.

What about the kobs [2] of the same binder?
Its kobs is 0.026 s⁻¹.

B2: LHD101 chainA, split luciferase reporter construct (designed binder)
chain: GRQEKVLKSIEETVRKMGVTMETHRSGNEVKVVIKGLHIKQQRQLYRDVRETSKKQGVETEIEVEGDTVTIVVRE
notes: not shown: N-terminal Strep-tag and sfGFP; GS-linker and smBiT or lgBiT
With B2 as the binder, how does the Kd [3] read?
The Kd was 20 nM.

And the kobs [4]?
The kobs was 0.04 s⁻¹.

What about the Kd [5] of the same binder?
Its Kd is 5 nM.

What about the Kd [6] of the same binder?
The Kd was 37 nM.

B3: LHD101 chainA (designed binder)
chain: GRQEKVLKSIEETVRKMGVTMETHRSGNEVKVVIKGLHIKQQRQLYRDVRETSKKQGVETEIEVEGDTVTIVVRE
notes: also called LHD101A
For B3, which kon (LHD101 chainB [7]) is on record?
The kon was 1e+06 M⁻¹ s⁻¹.

And the Kd (LHD101 chainB [8])?
Its Kd is 9.5 nM.

Does B3 bind [9]?
Result: no binding (tested: above 100 µM)

What about the Kd (LHD101 chainB [10]) of the same binder?
The Kd was 1.9 nM.

What about the koff (LHD101 chainB [10]) of the same binder?
The koff was 0.0043 s⁻¹.

What about the kon (LHD101 chainB [10]) of the same binder?
The kon was 2.2e+06 M⁻¹ s⁻¹.

And the koff (LHD101 chainB [11])?
The koff was 0.0214 s⁻¹.

B4: LHD317 chainA (designed binder)
chain: GRQEKVLKSIEETVRKMGVRMLTHRGGNAVIVVIEGLHPSQAEQLLRDVHRTAKKQGVTVHLVFTGDIVVIMVVVGASEEEQEEMHRLVREIAEALHEAKRKGANEEQLEQLLRELLERAEREG
notes: also called LHD317A
For B4, which Kd (317B [12]) is on record?
Its Kd is 56 nM.

What about the Kd (317B [13]) of the same binder?
The Kd was 34.7 nM.

What about the koff (317B [13]) of the same binder?
The koff was 0.0051 s⁻¹.

What about the kon (317B [13]) of the same binder?
Its kon is 150000 M⁻¹ s⁻¹.

Does B4 bind [14]?
Result: no binding (tested: 57.4 uM)

B5: LHD29 chainA, split luciferase reporter construct (designed binder)
chain: TWQWVLINISEEARQRIEEYVRRISKKEGTEVHFEKDDGVLHIRVKNLHEKRAREIHEYAKRVIL
notes: as for B2
What does the source list for B5?
Kd [15]: 60 nM; kobs [16]: 0.0003 s⁻¹; Kd [17]: 50 nM

B6: LHD274 chainA, split luciferase reporter construct (designed binder)
chain: TTNFHLINGSEEARQRIEEYVRRISKKEGTEVHFEKSDGTLEIRVKNLHEKREREIKEYIERVLL
notes: as for B2
With B6 as the binder, how does the kobs [18] read?
Its kobs is 0.0014 s⁻¹.

B7: 101A21, split luciferase reporter construct (designed binder)
chain: SEKEKVEELAQRIREQLPDTELAREAQELADEARKSDDSEALKVVYLALRIVQQLPDTELAREALELAKEAVKSTDSEKLKVVYLALRVVQQLPDTEEARKALEIAKEAVKADAQILLAIARAVLKMGVEMEVHPSGNEVKVVIKGLHIKQQRQLYRDVREAAKKAGVEVEIEVEGDTVTIVVRE
notes: also called LHD101-A21-B82 (A21 half); not shown: N-terminal Strep-tag and sfGFP; GS-linker and smBiT or lgBiT
With B7 as the binder, how does the Kd [19] read?
The Kd was 11 nM.

B8: LHD206 chainA, split luciferase reporter construct (designed binder)
chain: TDELLERLRQLFEELHERGTEIVVEVHINGRKTEIEVQGIDKRLLKIILEVIREEIEREGSSEVEVNVHSGGQTWTFNEK
notes: as for B2
For B8, which Kd [20] is on record?
Its Kd is 11 nM.

What about the kobs [21] of the same binder?
Its kobs is 0.01 s⁻¹.

B9: LHD202 chainA (designed binder)
chain: GRQEKVLKSIEETVRKMGVTMETHRSGNKVKVVIKGLHESQQEQLRKDVHETLRKQGVVAVTQKHGDTVTIYVTE
notes: also called LHD202A
For B9, which Kd (LHD202 chainB [22]) is on record?
Its Kd is 2400 nM.

And the Kd (LHD202 chainB [23])?
The Kd was 4800 nM.

What about the koff (LHD202 chainB [23]) of the same binder?
The koff was 0.29 s⁻¹.

And the kon (LHD202 chainB [23])?
Its kon is 60000 M⁻¹ s⁻¹.

B10: LHD202 chainA, split luciferase reporter construct (designed binder)
chain: GRQEKVLKSIEETVRKMGVTMETHRSGNKVKVVIKGLHESQQEQLRKDVHETLRKQGVVAVTQKHGDTVTIYVTE
notes: as for B2
For B10, which kobs [24] is on record?
The kobs was 0.018 s⁻¹.
